In PMC9324194:

Biological target: Cy3-APE1 (human) (UniProt P27695)
Test: FRET titration
Settings: N1 = tetrahydrofuran (THF), EMSA: 2 uM protein and DNA, 20 mM potassium phosphate pH 7.0, 50 mM NaCl, 5 mM MgCl2, 2 mM DTT, 0.01% Tween-20, 30 min room temperature, gel at 4 °C

Chain of UniProt P27695 (P27695 whole entry): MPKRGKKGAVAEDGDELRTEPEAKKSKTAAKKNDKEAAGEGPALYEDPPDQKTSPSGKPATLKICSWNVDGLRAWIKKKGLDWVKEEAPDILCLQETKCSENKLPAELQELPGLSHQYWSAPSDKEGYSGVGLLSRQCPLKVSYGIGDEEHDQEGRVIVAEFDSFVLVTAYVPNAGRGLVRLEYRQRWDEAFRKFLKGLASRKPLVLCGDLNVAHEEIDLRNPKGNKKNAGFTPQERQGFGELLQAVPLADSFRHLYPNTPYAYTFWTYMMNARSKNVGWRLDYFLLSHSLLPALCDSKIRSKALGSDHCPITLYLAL

Sequence: NCGGTCGATCGTAAGATCGACCGTGCGCTGGAGCTTGCTCCAGCGC [Cy5-P (Cy5-labelled product)]
- Kd: 5 nM
